{
  "source": "the nanobody polyreactivity screen of Harvey et al. (2022)",
  "data": [
    {"experiment": "yeast display, Sf9 membrane polyspecificity reagent, FACS + sequencing; frameworks hold sequencing errors", "in_short": "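Polyreactivity labels are assigned by the sorting gate from which each nanobody was recovered. The gates were low and high (top ~1%), set on anti-HA fluorescence for expression and streptavidin fluorescence for reagent binding. Before sorting, galactose-induced (36–48 hours) yeast display cells were stained for 1 hour at 4 °C with 10% biotinylated, detergent-solubilized Sf9 membrane reagent.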", "values": [
      {"sequence": "QVQLVESGGGLVQAGGSLRLSCAASGSTFHKNAMGWYRQAPGKERELVAGITKRGGSTYYADSVKGRFTISRDNAKNTVYLQMNSLKPEDTAVYYCNADFPVGRTEYDYWGQGTQVTVSS", "polyreactivity (PSR sort gate)": "low polyreactivity"},
      {"sequence": "QVQLVESGGGLVQAGGSLRLSCAASGSTFHPYAMGWYRQAPGKERELVAAITWRVGSTYYADSVKGRFTISRDNAKNTVYLLINCLKPEDTAVYYCAVSYLSTLGRSRYDYWGQGTQVSVSS", "polyreactivity (PSR sort gate)": "low polyreactivity"},
      {"sequence": "QVQLVESGGGLVQAGGSLRLSCAASGSTFHRNTLGWYRQAPGKERELVAGISLRGVRTYYADSVKGRFTISRDNAKNSVYLQMNSLKPEDTAVYYCAALYYYGYDYWGQGTQVTVSS", "polyreactivity (PSR sort gate)": "high polyreactivity"},
      {"sequence": "QVQLVESGGGLVQAGGSLRLSCAASGSTFHRNTMGWYRQAPAKERALVAGISLRGVSTYYADSVKGRFTISRDNAKNTVYLQMNSLKPEDTAVYYCAAGGPYTRNFKLGYWGQGTQVTVSS", "polyreactivity (PSR sort gate)": "high polyreactivity"},
      {"sequence": "QVQLVESGGGLVQAGGSLRLSCAASGSTFHRYAMGWYRQAPGKERELVAAISVRTGSTYYADSVKGRFTISRDNAKNTVYLQMNSLKPEDTAVYSCAVGKQINGKIYRYDYWGQGTQVTVSS", "polyreactivity (PSR sort gate)": "high polyreactivity"},
      {"sequence": "QVQLVESGGGLVQAGGSLRLSCAASGSTFHRYAMGWYRQAPGKERELVARINGSGGSTYYADSVKGRFTISRDNSKNTVYLQMNSLIPEDTAVYYCAADGLYYTYGYDYWGQGTQVTVSS", "polyreactivity (PSR sort gate)": "low polyreactivity"},
      {"sequence": "QVQLVESGGGLVQAGGSLRLSCAASGSTFHRYVMGWYRQAPGKERELVAVINSTGGSTYYADSVKGRFTISRDNAKNTVYLQMNSLKPEDTAVYYCARVTRRGPGYTTLYSRYDYWGQGTQVTVSS", "polyreactivity (PSR sort gate)": "low polyreactivity"},
      {"sequence": "QVQLVESGGGLVQAGGSLRLSCAASGSTFHSYVMGWYRPAPGKERELVAAITSRGGSTNYADSFKGRFTISRDNAKNTVYLQLNSLKPEDTAVYYCAADVYLGWSYFRYDYWGQGTQVTVSS", "polyreactivity (PSR sort gate)": "low polyreactivity"},
      {"sequence": "QVQLVESGGGLVQAGGSLRLSCAASGSTFHSYVMGWYRQAPGKERELVAAITSRGGSTNYADSVKGRFTISRDNAKNTVYLQMNSLKPEDTAVYYCAADGYWGWSYFRYDYWGQGTQVTVSS", "polyreactivity (PSR sort gate)": "low polyreactivity"},
      {"sequence": "QVQLVESGGGLVQAGGSLRLSCAASGSTFHTYAMGWYRQAPGKERELVAGITGSGDSTFYADSVKGRFTISRDNAKNTVYLQMNSLKPEDTAVYYCAVESLRDVFEYDYWGQGTQVTVSS", "polyreactivity (PSR sort gate)": "low polyreactivity"},
      {"sequence": "QVQLVESGGGLVQAGGSLRLSCAASGSTFHTYTMGWYRQAPGKERELVAGISRSGGSTYYADSVKGRFTISRDNAKNTVYLQMNSLKPEDTAVYYCNALSSKTDTYDYWGQGTQVTVSS", "polyreactivity (PSR sort gate)": "high polyreactivity"},
      {"sequence": "QVQLVESGGGLVQAGGSLRLSCAASGSTFHWYDMGWYRPAPGKERELVAGINSSGDGTYYADSVKGRFTISRDNAKNTVYLQMNSLKPEDTAVYYCAAEYYTYWGYEDDYWGQGTQVTVSS", "polyreactivity (PSR sort gate)": "low polyreactivity"},
      {"sequence": "QVQLVESGGGLVQAGGSLRLSCAASGSTFHYYAMGWYRQAPGKERELVATITRRGDSTYYADSVKGRFTISRDKAKNTVYLQMNSLKPEDTAVYYCATRYWRSGYDWPYGYWGQGTQVTVSS", "polyreactivity (PSR sort gate)": "high polyreactivity"},
      {"sequence": "QVQLVESGGGLVQAGGSLRLSCAASGSTFIANDMGWYRQAPGKERELVAAISWSGGSTYADSVKGRFTISRDNAKNTVYLQMNSLKPEDTAVYYCAADWQVVWDYNYWGQGTQVTVSS", "polyreactivity (PSR sort gate)": "low polyreactivity"},
      {"sequence": "QVQLVESGGGLVQAGGSLRLSCAASGSTFIAYAMGWYRQAPGKERELVAAITKSGGRTYYADSVKGRFTISRDNAKNTVYLQMNSLKPEDTAVYYCAKLVPVYSHPYAYDYWGQGTQVTVSS", "polyreactivity (PSR sort gate)": "high polyreactivity"},
      {"sequence": "QVQLVESGGGLVQAGGSLRLSCAASGSTFIDYAMGWYRQAPGKDRELVAAITWSGSSTYYADSVKGRFTISRDNAKNTVDLQMNSLKPEDTAVYYCAARYWYQSYHTYGYYSWGQGTQVTVSS", "polyreactivity (PSR sort gate)": "low polyreactivity"},
      {"sequence": "QVQLVESGGGLVQAGGSLRLSCAASGSTFIDYAMGWYRQAPGKERELVAAIDQGGGRTYYADSVKGRFTISRDNAKNTVYLQMNSLKPEDTAVYYCAATSRVVGEGGYEYWGQGTQVTVSS", "polyreactivity (PSR sort gate)": "low polyreactivity"},
      {"sequence": "QVQLVESGGGLVQAGGSLRLSCAASGSTFIFNTMGWYRQAPGKERELVATITGSGGSTYYADSVKGRFTISRDNAKNTVYLQMNSLKPEDTAVYYCAAVGDQNEYDYWGQGTQVTVSS", "polyreactivity (PSR sort gate)": "low polyreactivity"},
      {"sequence": "QVQLVESGGGLVQAGGSLRLSCAASGSTFIFNTMGWYRQAPGNERELVAAIRLSGGSTYYADSVKGRFTLSRDNAKYTVYLQMNSLKPEDTAVYYCARRLATRGHTYDYWGQGTQVTVSS", "polyreactivity (PSR sort gate)": "low polyreactivity"},
      {"sequence": "QVQLVESGGGLVQAGGSLRLSCAASGSTFIFYAMGWYRQAPGKERELVAAISWSGGSTYYADSVKGRFTISRDNAKYTVYLQMNSLKPEDTAVYYCITLHRYSSERYDYWGQGTQVTVSS", "polyreactivity (PSR sort gate)": "high polyreactivity"},
      {"sequence": "QVQLVESGGGLVQAGGSLRLSCAASGSTFIFYAMGWYRQAPGKERELVAAITSSGGSTYYADSVKGRFTISRDNAKNTVYLQMNSLKPEDTAVYYCNTLAYTYGSKFGYWGQGTQVTVSS", "polyreactivity (PSR sort gate)": "low polyreactivity"},
      {"sequence": "QVQLVESGGGLVQAGGSLRLSCAASGSTFIFYAMGWYRQAPGKERELVASITSRAASTYYADSVKGRFTISRDIAKNTVYLQMNSLKPEDTAVYYCAATFSYTLFWWSSFLLYDYWGQGTQVTVSS", "polyreactivity (PSR sort gate)": "low polyreactivity"},
      {"sequence": "QVQLVESGGGLVQAGGSLRLSCAASGSTFIGNAMGWYRQAPGKEREFVATISQNGGRTYYADSVKGRFTISRDNAKNTVYLQMNSLKPEDTAVYYCAADDWRWGYDYWGQGTQVTVSS", "polyreactivity (PSR sort gate)": "high polyreactivity"},
      {"sequence": "QVQLVESGGGLVQAGGSLRLSCAASGSTFIGYAMGWYRQAPGKERELVAAISRRGSRTYYADSVKGRFTISRDNAKNTVYLQINSLKPEDTAVYYCNRDYREYGYAYSGRYYWGQGTQVTVSS", "polyreactivity (PSR sort gate)": "high polyreactivity"},
      {"sequence": "QVQLVESGGGLVQAGGSLRLSCAASGSTFIGYAMGWYRQAPGKERELVAAISRSDGSTYYADSVKGRFTISRDHAKNTVYLQMNSLKPEDTAVYYCNADYYRWYDYWGQGTQVTLSS", "polyreactivity (PSR sort gate)": "low polyreactivity"},
      {"sequence": "QVQLVESGGGLVQAGGSLRLSCAASGSTFIHNAMGWYRQAPGNERELVAAITSGGSTYYADSVKGRFTISRDNAMNTVYLQMNSLKPEDTAVYYCNRGSWRYSTMEYWGQGTLVTVSS", "polyreactivity (PSR sort gate)": "high polyreactivity"},
      {"sequence": "QVQLVESGGGLVQAGGSLRLSCAASGSTFIIYSMGWYRQAPGKERELVATISTRGTSTYYADSVKGRFTISRDNAKNTVYLQMNSLKPEDTAVYYCNARRRGYGNRYTFDYWGQGTQVTVSS", "polyreactivity (PSR sort gate)": "high polyreactivity"},
      {"sequence": "QVQLVESGGGLVQAGGSLRLSCAASGSTFIKNAMGWYRQAPGKERELVAAINNSGSRTYYADSVKGRFTISRDNAKNTVYLQMNSLKPEDTAVYYCAAGRTYGMGYWGQGTQVTVSS", "polyreactivity (PSR sort gate)": "high polyreactivity"},
      {"sequence": "QVQLVESGGGLVQAGGSLRLSCAASGSTFILYAMGWYRQAPGKERELVAAISKRGGSTYYADSVKGRFTISRDNATHTVYFQLKSLKPEDTAVYYLNKKNPQDLTENGYWGQGTEVTVSS", "polyreactivity (PSR sort gate)": "high polyreactivity"},
      {"sequence": "QVQLVESGGGLVQAGGSLRLSCAASGSTFINYAMGWYRQAPGKERELVAAYADSVKGRFTISRDNAKNTVYLQMNSLKPEDTAVYYCAARYVYPHQWTPYIRPYDYWGQGTQVTVSS", "polyreactivity (PSR sort gate)": "low polyreactivity"},
      {"sequence": "QVQLVESGGGLVQAGGSLRLSCAASGSTFIPYAMGWYRQAPGKERELVAGINGGDGSTYYADSVKGRFTISRDNAKNTVYLQMNSLKPEDTAVYYCAKKNPLVFTSGMDYWGQGTQVTVSS", "polyreactivity (PSR sort gate)": "low polyreactivity"},
      {"sequence": "QVQLVESGGGLVQAGGSLRLSCAASGSTFISYAMGWYRQAPGKERELVAAISSSGGSTYYADSVKGRFTISRDNAKYTVYLQMNSLKPEDTAVYYCAAESVYYRSWRYYYWGQGTQVTVSS", "polyreactivity (PSR sort gate)": "high polyreactivity"}
    ]}
  ]
}
